Results taken from the supplement of paper PMC10567573.

B1: LPCAT4 (parent)
chain: HDPLYGKLFSTYLRPPHTSRGTSQ
B2: TRIM55 (parent)
chain: FQASNPYLPTRGGTTMASGGRFRC

Variants of: B1
Experiment: protein stability index of a GFP-peptide fusion (GPS, HEK-293T) (PSI 1-6); higher = more stable
Conditions: c terminus: a fixed tail appended
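Further: lentivirally expressed fusions sorted by FACS into six bins by GFP to DsRed ratio, PSI derived from sequencing read proportions per bin multiplied by bin number.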

Variant	protein stability index
HDPLYGKLFSTYLRPPHTSRGTSW	2.13
HDPLYGKLFSTYLRPPHTSRGTSY	2.07

Variants of: B2
Experiment: as above
Conditions: c terminus: a fixed tail appended

Variant	protein stability index
FVASNPYLPTRGGTTMASGGRFRC	1.74
FAASNPYLPTRGGTTMASGGRFRC	2.17
FDASNPYLPTRGGTTMASGGRFRC	3.43
FKASNPYLPTRGGTTMASGGRFRC	2.85
FTASNPYLPTRGGTTMASGGRFRC	1.68
FGASNPYLPTRGGTTMASGGRFRC	1.9
FFASNPYLPTRGGTTMASGGRFRC	2.03
FNASNPYLPTRGGTTMASGGRFRC	2.68
FCASNPYLPTRGGTTMASGGRFRC	1.44
FRASNPYLPTRGGTTMASGGRFRC	2.68
FWASNPYLPTRGGTTMASGGRFRC	2.3
FLASNPYLPTRGGTTMASGGRFRC	1.94
FMASNPYLPTRGGTTMASGGRFRC	2
FSASNPYLPTRGGTTMASGGRFRC	2.13
FPASNPYLPTRGGTTMASGGRFRC	1.61
FEASNPYLPTRGGTTMASGGRFRC	3.38
FIASNPYLPTRGGTTMASGGRFRC	2.22
FYASNPYLPTRGGTTMASGGRFRC	2.2
FHASNPYLPTRGGTTMASGGRFRC	2.99
MQASNPYLPTRGGTTMASGGRFRC	3.4
SQASNPYLPTRGGTTMASGGRFRC	3.52
PQASNPYLPTRGGTTMASGGRFRC	3.91
NQASNPYLPTRGGTTMASGGRFRC	3.55

Variant	protein stability index
GQASNPYLPTRGGTTMASGGRFRC	3.91
DQASNPYLPTRGGTTMASGGRFRC	3.43
VQASNPYLPTRGGTTMASGGRFRC	3.16
IQASNPYLPTRGGTTMASGGRFRC	3.13
HQASNPYLPTRGGTTMASGGRFRC	3.24
QQASNPYLPTRGGTTMASGGRFRC	3.91
EQASNPYLPTRGGTTMASGGRFRC	3.59
AQASNPYLPTRGGTTMASGGRFRC	3.51
CQASNPYLPTRGGTTMASGGRFRC	2.2
YQASNPYLPTRGGTTMASGGRFRC	2.06
LQASNPYLPTRGGTTMASGGRFRC	3.37
TQASNPYLPTRGGTTMASGGRFRC	3.49
WQASNPYLPTRGGTTMASGGRFRC	2.58
KQASNPYLPTRGGTTMASGGRFRC	3.41
RQASNPYLPTRGGTTMASGGRFRC	3.57
FQQSNPYLPTRGGTTMASGGRFRC	2.84
FQVSNPYLPTRGGTTMASGGRFRC	2.28
FQYSNPYLPTRGGTTMASGGRFRC	1.95
FQDSNPYLPTRGGTTMASGGRFRC	2.71
FQSSNPYLPTRGGTTMASGGRFRC	2.27
FQPSNPYLPTRGGTTMASGGRFRC	2.02
FQMSNPYLPTRGGTTMASGGRFRC	1.83
FQTSNPYLPTRGGTTMASGGRFRC	1.54

Variant	protein stability index
FQHSNPYLPTRGGTTMASGGRFRC	1.24
FQFSNPYLPTRGGTTMASGGRFRC	2.69
FQCSNPYLPTRGGTTMASGGRFRC	1.32
FQWSNPYLPTRGGTTMASGGRFRC	2.95
FQISNPYLPTRGGTTMASGGRFRC	1.76
FQESNPYLPTRGGTTMASGGRFRC	2.55
FQRSNPYLPTRGGTTMASGGRFRC	2.46
FQGSNPYLPTRGGTTMASGGRFRC	1.95
FQKSNPYLPTRGGTTMASGGRFRC	1.69
FQLSNPYLPTRGGTTMASGGRFRC	1.8
FQNSNPYLPTRGGTTMASGGRFRC	2.18
FQASKPYLPTRGGTTMASGGRFRC	1.78
FQASPPYLPTRGGTTMASGGRFRC	2.22
FQASQPYLPTRGGTTMASGGRFRC	2.33
FQASGPYLPTRGGTTMASGGRFRC	1.41
FQASSPYLPTRGGTTMASGGRFRC	3.55
FQASTPYLPTRGGTTMASGGRFRC	2
FQASVPYLPTRGGTTMASGGRFRC	2.1
FQASHPYLPTRGGTTMASGGRFRC	3.58
FQASAPYLPTRGGTTMASGGRFRC	2.65
FQASYPYLPTRGGTTMASGGRFRC	2.14
FQASLPYLPTRGGTTMASGGRFRC	2.04
FQASRPYLPTRGGTTMASGGRFRC	1.7

Variant	protein stability index
FQASCPYLPTRGGTTMASGGRFRC	2.6
FQASIPYLPTRGGTTMASGGRFRC	2.51
FQASFPYLPTRGGTTMASGGRFRC	3.23
FQASDPYLPTRGGTTMASGGRFRC	2.81
FQASWPYLPTRGGTTMASGGRFRC	2.49
FQASEPYLPTRGGTTMASGGRFRC	2.58
FQACNPYLPTRGGTTMASGGRFRC	2.64
FQARNPYLPTRGGTTMASGGRFRC	1.44
FQAKNPYLPTRGGTTMASGGRFRC	1.85
FQAMNPYLPTRGGTTMASGGRFRC	2.09
FQAINPYLPTRGGTTMASGGRFRC	1.88
FQAGNPYLPTRGGTTMASGGRFRC	1.1
FQAPNPYLPTRGGTTMASGGRFRC	1.8
FQAVNPYLPTRGGTTMASGGRFRC	2.34
FQATNPYLPTRGGTTMASGGRFRC	2.81
FQAFNPYLPTRGGTTMASGGRFRC	2.57
FQAANPYLPTRGGTTMASGGRFRC	2.11
FQAENPYLPTRGGTTMASGGRFRC	1.95
FQANNPYLPTRGGTTMASGGRFRC	1.72
FQALNPYLPTRGGTTMASGGRFRC	1.66
FQAYNPYLPTRGGTTMASGGRFRC	2.12
FQAQNPYLPTRGGTTMASGGRFRC	1.86
FQADNPYLPTRGGTTMASGGRFRC	1.24
